Laboratory results as given in patent US20260274985A1 (MYTHIC THERAPEUTICS, published 2026).
Where a chain is given by its changes, count along the chain named.

B1: MYT12373 (antibody, V domains shown)
VH: QVQLQQSGSELKKPGASVKVSCKASGYTFTNYGMNWVKQAPGQGLKWMGWINTYTGEPTYTDDFKGRFAFSLDTSVSTAYLQISSLKADDTAVYFCARGGFGSSYWYFDVWGQGSLVTVSS
VL: DIQLTQSPSSLSASVGDRVSITCKASQDVHIAVAWYQQKPGKAPKLLIYSASYRYTGVPDRFSGSGSGTDFTLTISSLQPEDFAVYYCHQHYHTPLTFGAGTKVEIK
notes: sacituzumab VL 30, 89, 93 -> H
B2: MYT12354 (antibody, V domains shown)
VH: B1 VH
VL: B1 VL with H30S, S52H, H93I
notes: sacituzumab VL 52, 89 -> H
B3: MYT12347 (antibody, V domains shown)
VH: B1 VH
VL: B1 VL with H30S, A51H, S52H, H89Q, H93I
notes: sacituzumab VL 51, 52 -> H
B4: MYT12349 (antibody, V domains shown)
VH: B1 VH
VL: B1 VL with H30S, A51H, H93I
notes: sacituzumab VL 51, 89 -> H
B5: MYT12343 (antibody, V domains shown)
VH: B1 VH
VL: B1 VL with H30S, V33H, H93I
notes: sacituzumab VL 33, 89 -> H
B6: MYT12367 (antibody, V domains shown)
VH: B1 VH
VL: B1 VL with H30S, H89Q, Y92H
notes: sacituzumab VL 92, 93 -> H
B7: MYT12342 (antibody, V domains shown)
VH: B1 VH
VL: B1 VL with H30S, V33H, Y53H, H89Q, H93I
notes: sacituzumab VL 33, 53 -> H
B8: MYT12348 (antibody, V domains shown)
VH: B1 VH
VL: B1 VL with H30S, A51H, Y53H, H89Q, H93I
notes: sacituzumab VL 51, 53 -> H
B9: MYT12368 (antibody, V domains shown)
VH: B1 VH
VL: B1 VL with A51H, Y53H, H89Q, H93I
notes: sacituzumab VL 30, 51, 53 -> H
B10: MYT12370 (antibody, V domains shown)
VH: B1 VH
VL: B1 VL with A51H, H89Q
notes: sacituzumab VL 30, 51, 93 -> H
B11: MYT12358 (antibody, V domains shown)
VH: B1 VH
VL: B1 VL with H30S, Y53H, H93I
notes: sacituzumab VL 53, 89 -> H
B12: MYT12369 (antibody, V domains shown)
VH: B1 VH
VL: B1 VL with A51H, H93I
notes: sacituzumab VL 30, 51, 89 -> H
B13: MYT12346 (antibody, V domains shown)
VH: B1 VH
VL: B1 VL with H30S, V33H, H89Q
notes: sacituzumab VL 33, 93 -> H
B14: MYT12318 (antibody, V domains shown)
VH: B1 VH with D63H, G66H
VL: B1 VL with H30S, H89Q, H93I
notes: sacituzumab VH 63, 66 -> H
B15: MYT12320 (antibody, V domains shown)
VH: B1 VH with F64H, G66H
VL: B1 VL with H30S, H89Q, H93I
notes: sacituzumab VH 64, 66 -> H
B16: MYT12310 (antibody, V domains shown)
VH: B1 VH with Y60H, K65H
VL: B1 VL with H30S, H89Q, H93I
notes: sacituzumab VH 60, 65 -> H
B17: MYT12319 (antibody, V domains shown)
VH: B1 VH with F64H, K65H
VL: B1 VL with H30S, H89Q, H93I
notes: sacituzumab VH 64, 65 -> H
B18: MYT11677 (antibody, V domains shown)
VH: QVQLVQSGAEVKKPGASVKVSCKASGYTFTTAGMQWVRQAPGQGLEWMGWINTHSGVPKYAEDFKGRVTISADTSTSTAYLQLSSLKSEDTAVYYCARSGFGSSYWYFDVWGQGTLVTVSS
VL: B1 VL with L4M, S20T, K24H, H30S, I31T, D60S, H89Q, H93I, A100Q, V104L
notes: IgG from supernatant; His at LCV position 24; also called datopotamab variant L1 01
B19: MYT11698 (antibody, V domains shown)
VH: B18 VH
VL: B1 VL with L4M, S20T, H30S, I31T, D60S, H89Q, Y92H, H93I, A100Q, V104L
notes: IgG from supernatant; His at LCV position 92; also called datopotamab variant L3 04
B20: MYT11696 (antibody, V domains shown)
VH: B18 VH
VL: B1 VL with L4M, S20T, H30S, I31T, D60S, H89Q, Q90H, H93I, A100Q, V104L
notes: IgG from supernatant; His at LCV position 90; also called datopotamab variant L3 02
B21: MYT11703 (antibody, V domains shown)
VH: B18 VH
VL: B1 VL with L4M, S20T, H30S, I31T, D60S, H89Q, H93I, T97H, A100Q, V104L
notes: IgG from supernatant; His at LCV position 97; also called datopotamab variant L3 09
B22: MYT11700 (antibody, V domains shown)
VH: B18 VH
VL: B1 VL with L4M, S20T, H30S, I31T, D60S, H89Q, H93I, T94H, A100Q, V104L
notes: IgG from supernatant; His at LCV position 94; also called datopotamab variant L3 06
B23: MYT11697 (antibody, V domains shown)
VH: B18 VH
VL: B1 VL with L4M, S20T, H30S, I31T, D60S, H89Q, H91A, H93I, A100Q, V104L
notes: IgG from supernatant; Ala at LCV position 91 (starting residue His); also called datopotamab variant L3 03
B24: MYT11683 (antibody, V domains shown)
VH: B18 VH
VL: B1 VL with L4M, S20T, I31T, D60S, H89Q, H93I, A100Q, V104L
notes: IgG from supernatant; His at LCV position 30; also called datopotamab variant L1 07
B25: MYT11686 (antibody, V domains shown)
VH: B18 VH
VL: B1 VL with L4M, S20T, H30S, I31T, V33H, D60S, H89Q, H93I, A100Q, V104L
notes: IgG from supernatant; His at LCV position 33; also called datopotamab variant L1 10
B26: MYT11684 (antibody, V domains shown)
VH: B18 VH
VL: B1 VL with L4M, S20T, H30S, I31H, D60S, H89Q, H93I, A100Q, V104L
notes: IgG from supernatant; His at LCV position 31; also called datopotamab variant L1 08
B27: MYT11692 (antibody, V domains shown)
VH: B18 VH
VL: B1 VL with L4M, S20T, H30S, I31T, R54H, D60S, H89Q, H93I, A100Q, V104L
notes: IgG from supernatant; His at LCV position 54; also called datopotamab variant L2 05
B28: MYT11681 (antibody, V domains shown)
VH: B18 VH
VL: B1 VL with L4M, S20T, D28H, H30S, I31T, D60S, H89Q, H93I, A100Q, V104L
notes: IgG from supernatant; His at LCV position 28; also called datopotamab variant L1 05
B29: MYT11694 (antibody, V domains shown)
VH: B18 VH
VL: B1 VL with L4M, S20T, H30S, I31T, T56H, D60S, H89Q, H93I, A100Q, V104L
notes: IgG from supernatant; His at LCV position 56; also called datopotamab variant L2 07
B30: MYT11702 (antibody, V domains shown)
VH: B18 VH
VL: B1 VL with L4M, S20T, H30S, I31T, D60S, H89Q, H93I, L96H, A100Q, V104L
notes: IgG from supernatant; His at LCV position 96; also called datopotamab variant L3 08
B31: MYT11693 (antibody, V domains shown)
VH: B18 VH
VL: B1 VL with L4M, S20T, H30S, I31T, Y55H, D60S, H89Q, H93I, A100Q, V104L
notes: IgG from supernatant; His at LCV position 55; also called datopotamab variant L2 06
B32: MYT11701 (antibody, V domains shown)
VH: B18 VH
VL: B1 VL with L4M, S20T, H30S, I31T, D60S, H89Q, H93I, P95H, A100Q, V104L
notes: IgG from supernatant; His at LCV position 95; also called datopotamab variant L3 07
B33: MYT11689 (antibody, V domains shown)
VH: B18 VH
VL: B1 VL with L4M, S20T, H30S, I31T, A51H, D60S, H89Q, H93I, A100Q, V104L
notes: IgG from supernatant; His at LCV position 51; also called datopotamab variant L2 02
B34: MYT11695 (antibody, V domains shown)
VH: B18 VH
VL: B1 VL with L4M, S20T, H30S, I31T, D60S, H93I, A100Q, V104L
notes: IgG from supernatant; His at LCV position 89; also called datopotamab variant L3 01
B35: MYT11685 (antibody, V domains shown)
VH: B18 VH
VL: B1 VL with L4M, S20T, H30S, I31T, A32H, D60S, H89Q, H93I, A100Q, V104L
notes: IgG from supernatant; His at LCV position 32; also called datopotamab variant L1 09

Target: T1, Human TROP2 Protein, His Tag (Acro Biosystems) (human, UniProt P09758 27-274)
T1 construct: not shown: His tag
T1 sequence (looked up): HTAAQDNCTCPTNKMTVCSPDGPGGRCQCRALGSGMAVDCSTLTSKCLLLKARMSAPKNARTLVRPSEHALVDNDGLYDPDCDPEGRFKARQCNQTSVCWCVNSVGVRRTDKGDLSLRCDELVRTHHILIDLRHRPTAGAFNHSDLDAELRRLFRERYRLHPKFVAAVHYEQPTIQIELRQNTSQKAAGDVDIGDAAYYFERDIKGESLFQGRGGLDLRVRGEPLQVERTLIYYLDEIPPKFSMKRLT
Assay: BLI (Octet)

Binding result, binds:
B1
B2
B3
B4
B5
B6
B7
B8
B9
B10
B11
B12
B13
B14
B15
B16
B17

Target: T2, Human TROP2 Protein, His Tag (human, UniProt P09758 27-274)
T2 construct: Bought protein; also called TACSTD2; not shown: His tag
T2 sequence (looked up): T1 sequence (looked up)
Assay: BLI (Octet) [2/2]
Method: After allowing for four days of protein expression, cell culture supernatants were collected, quantified by SDS-PAGE analysis (DNS), and the pH dependence of the variant was evaluated using biolayer interferometry (BLI) on an Octet RED 96e instrument. Briefly, cell culture supernatants were diluted based on qualitative expression level of the variant determined by visual examination of SDS-PAGE gels, 5 μL of cell culture supernatant was diluted into 195 μL of 1×PBST, pH 7.4 for high expressors, 25 μL of cell culture supernatant was diluted into 175 μL of 1×PBST, pH 7.4 for medium expressors and 100 μL of cell culture supernatant was diluted into 100 μL of 1×PBST, pH 7.4 for low expressors for loading onto the sensor tips. The resulting diluted supernatants were then captured on an anti-human Fc sensor (Forte Bio). A baseline was established using 1×PBST (50 mM Potassium Phosphate Buffer+150 mM NaCl+0.05% Tween 20) pH 7.4, and the sensor was associated with 50 nM of TROP2 (Human TROP2 Protein, His Tag, Acro Biosystems) in 1×PBST pH 7.4 for 120 sec to generate an association curve. In the dissociation phase, the antibody-antigen complex on the sensor was exposed to 1×PBST pH 7.4 or pH 5.4, for 300 sec. Association and dissociation phase curves were examined for the starting ABPC antibody (with no substitutions) and each corresponding antibody variant at pH 5.4 and pH 7.4 to inform on two criteria: a) enhanced dissociation (i.e., higher koff values) at pH 5.4 due to histidine or alanine substitution compared to the starting ABPC, (with no substitutions), and b) reduced dissociation at pH 7.4 (i.e., lower koff values) compared to pH 5.4 in the antibody variant itself and with the starting ABPC (with no substitutions). […] It was also noted that while some mutations obliterated TROP2 binding, others were tolerated with little or n change in TROP2 binding kinetics.

Binding result, no binding (tested: 50 nM):
B19
B21
B30
B35

Binding result, binds:
B18
B20
B22
B23
B24
B25
B26
B27
B28
B29
B31
B32
B33
B34
